“Also recorded” adds a separate entry of the source. Blank lines part the entries; values can stand above or below the molecule they belong to.
Columns and labels:
[1] = test system: patients with sickle cell disease; conditions: cited from earlier work
[2] = test system: PBMCs isolated and cultured from patients with sickle cell disease; experiment: Heme administration in vitro to PBMCs from sickle cell disease patients; assay type: cell-based, human; conditions: heme 100 uM, 16 h
Excerpt: IL-18, associated with prolonged QTc and mortality, is induced by heme in PBMCs.

[3] = test system: adults with moderate to severe sickle cell disease; conditions: cited from earlier work
[4] = test system: sickle mice; conditions: cited from earlier work
[5] = target: T1, IL-18 (Mus musculus, UniProt P70380); experiment: Chronic (sustained) inhibition of IL-18 with IL-18bp in sickle mice; assay type: in vivo; conditions: for myocardial fibrosis (Picrosirius Red staining): chronic/sustained (3 weeks) IL-18 inhibition; for diastolic function (change in E/E′, LV filling pressures, on echocardiography): chronic/sustained IL-18 inhibition
T1 construct: endogenous in cells; host or cells: sickle mice, in vivo (circulating and cardiac IL-18)
T1 sequence (P70380 36-192): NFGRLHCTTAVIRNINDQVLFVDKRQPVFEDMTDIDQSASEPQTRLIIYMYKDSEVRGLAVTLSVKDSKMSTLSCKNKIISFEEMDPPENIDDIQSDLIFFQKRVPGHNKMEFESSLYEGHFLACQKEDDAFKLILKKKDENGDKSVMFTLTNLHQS
Method: Based on the association of IL-18 with myocardial fibrosis and diastolic dysfunction, the functional role of IL-18 in the development of myocardial fibrosis and diastolic dysfunction was tested. […] The mechanisms of how IL-18 mediates sickle cardiomyopathy with prolonged repolarization, diastolic dysfunction, and myocardial fibrosis are unclear. Given the absence of significant IL-18 effect on WT mice and the vulnerability of sickle mice, microarray transcript profiling in murine LV tissue between the two mice was performed. A total of 1611 probes (812 annotated genes) were differentially expressed between sickle and WT mice (P≤0.05). […] Additionally, RT-PCR and western blot reveal sickle mice have reduced myocardial KCND2 and KCND3 gene expression levels (FIG. 6B) consistent with increased APD.
It is contemplated that IL-18/IL-18R signaling implicates Nox4 function in sickle heart arrhythmic response. In an acute setting, it is contemplated that IL-18-mediated Nox4 activation downregulates KCND2/KCND3 expression and associated Ito activity which prolongs APD promoting VT; in a chronic setting, it is contemplated that IL-18 induces Nox4-mediated myocardial apoptosis and subsequent fibrosis resulting in pathologic electrophysiological remodeling enhancing VT vulnerability. Briefly, myocardial action potentials reflect the sequential activation and inactivation of inward depolarizing (Na^+, Ca^2+) and outward repolarizing (K^+) current-carrying ion channels. The K^+ channel function determines membrane potential and refractoriness of the myocardium. […] These observations are coupled with increased nitrotyrosine (ROS marker) levels and p38 MAPK activation (within 5 mins and sustained for 45 mins) in vivo. Reduced Ito is also associated with IL-18-induced prolonged APD, promoting early after depolarizations (EADs) and reentry formation in sickle cell hearts. Several reports have shown direct Nox4 interactions with IL-18R as well as Nox4-medaited p38 MAPK activation in cardiomyocytes resulting in reduced KCND2/KCND3 mRNA expression (and Ito current) (Li et al., 2012. J Mol Cell Cardiol 52:971-977; Zhou et al., 2008. J Mol Cell Cardiol 45:832-838; Zhou et al., 2006. Circ Res 98:1040-1047). Single cell voltage clamp and organ level optical mapping is used to evaluate the downstream effects of IL-18 and Nox4. […] Based on these acute and chronic data, a mutant mouse with cardiac-specific Nox4 genetic depletion in a sickle cell mouse background is generated to functionally validate the role of cardiac Nox4 in sickle cell cardiomyopathy and inducible VT.

[6] = test system: sickle mice hearts; experiment: Optical mapping of ex vivo perfused hearts with exogenous IL-18 in the perfusate; set-up: species or system mouse
Excerpt: (§1) Optical mapping: WT and sickle male mice (12-16 weeks) hearts underwent optical mapping. The optical apparatus has been previously described (Rutledge et al., 2014; supra). The values are presented as the mean±standard deviation. Student t test was used and a P value of <0.05 was considered statistically significant. Sample […] and activation maps with BCL pacing were made for both the control and sickle cell hearts.
(§2) To establish cause and effect, acute effects of IL-18 on the myocardial electrical phenotype were evaluated further in sickle mice. […] Longer perfusion of IL-18 led to the development of multiple PVCs and short-lived VTs (n=4/4 hearts, FIG. 5E).

[7] = test system: WT mice hearts; experiment: Optical mapping of ex vivo perfused hearts with exogenous IL-18 in the perfusate (WT); set-up: species or system mouse; conditions: IL-18 via the perfusate (20 ng/min)
Excerpt: as §1, §2

[8] = test system: transient outward K+ current (Ito) in sickle mouse cardiomyocytes; experiment: Voltage clamp (patch clamp) of Ito in isolated cardiomyocytes; assay type: cell-based
Method: IL-18 reduces Ito in isolated sickle cardiomyocytes. Voltage clamp experiments were performed on fresh cardiomyocytes isolated from a sickle mouse exposed to IL-18 (FIG. 10).
Patch clamp protocol of Ito: Cardiomyocytes were isolated by standard enzymatic techniques and patch-clamp recordings of Ito were performed with an Axopatch-200B amplifier (Molecular Devices, Sunnyvale, Calif.) as described previously (El Gebeily et al., Pharmacol. 2010 Mar. 10; 629(1-3):96-103). Bath solution was Tyrode solution (mmol/L): 140 NaCl; 5.4 KCl; 1.8 CaCl2; 1 MgCl2; 0.33, Na2HPO4; 10 HEPES, 5.5 glucose (pH adjusted to 7.4 with NaOH). Pipette solution is (mmol/L): 110 K^+-aspartate, 20 KCl, 8 NaCl, 1 MgCl2, 1 CaCk2, 10 BAPTA, 4 K2ATP and 10 HEPES (pH adjusted to 7.2 KOH). Whole-cell voltage-clamp recordings were made using the ruptured patch-clamp technique with a patch-clamp amplifier, Axopatch 200 B (Axon Instruments, Foster City, USA). Pipettes resistances was ˜2 MΩ when filled with pipette solution. Series resistance in the whole-cell mode was compensated. Voltage-clamp currents were low-pass filtered at 1 kHz and digitized at 2 kHz. The total K+ current (Ipeak) was constructed from the current elicited by a series of 5 s test potentials at 10 mV increment from −110 mV to +50 mV from a holding potential of −80 mV at a frequency rate of 0.1 Hz. […] The data were recorded using pClamp 10.6 and analyzed with Clampfit (Axon Instruments, Foster City, USA). Current amplitudes were normalized to the cell capacitance and expressed as pA/pF. All experiments were carried out at room temperature (20-22° C.).

[9] = test system: cardiac Nox4, p38, nitrotyrosine in sickle mice; experiment: Acute IL-18 administration in vivo, cardiac Nox4/p38/nitrotyrosine; set-up: species or system mouse; conditions: within 5 minutes of IL-18 administration to sickle mice (5 ug/kg)
Excerpt: Nitrotyrosine levels are considered a stable byproduct of the presence of peroxynitrite (ROS).

[10] = short-term administration, tumor necrosis factor-α-induced vaso-occlusion model
[11] = sustained (3 weeks) IL-18 inhibition
[12] = IL-18 via the perfusate (20 ng/min), sickle mice hearts
[13] = sickle mouse cardiomyocytes in the presence of IL-18

Molecule: Nc1ncn([C@H]2C[C@H](O)[C@@H](CO)O2)c(=O)n1 [decitabine, 5-Aza-2′-deoxycytidine]
- sickle cell patients responding with an increase in HbF levels ([1]; including patients who had failed to respond to hydroxyurea): 100%
- dose-limiting toxicity ([1]; sickle cell patients): reversible neutropenia
- increase in total hemoglobin levels ([1]; sickle cell patients): 2 g/dL
- reticulocyte counts ([1]; sickle cell patients): decreased

Molecule: C=CC1=C(C)c2cc3[n-]c(cc4[n-]c(cc5nc(cc1n2)C(C)=C5C=C)c(C)c4CCC(=O)O)c(CCC(=O)O)c3C.[Fe+2] [heme]
- IL-18 protein expression [2]: induced IL-18 protein expression
- IL-18 protein expression ([2]; listed as Heme): induces IL-18 protein expression

Molecule: NC(=O)NO [hydroxyurea]
- frequency of painful crises, episodes of acute chest syndrome, transfusion requirements and hospitalizations ([3]; large multicenter study): marked decrease
- survival ([3]; patients): improved survival
- hemolytic anemia at baseline ([4]; long-term administration in sickle mice): does not improve
- animal survival [4, 10]: prolonged animal survival
- leukocyte recruitment to the microvasculature [4, 10]: significantly altered

- myocardial fibrosis (Picrosirius Red staining) [5]: reduced
- myocardial fibrosis (Picrosirius Red staining) ([5]; listed as IL-18 bp): reduced myocardial fibrosis
- diastolic function (change in E/E′, LV filling pressures, on echocardiography) [5]: improved cardiac function
- diastolic function (change in E/E′, LV filling pressures, on echocardiography) ([5]; listed as IL-18 bp): improved
- myocardial apoptosis [5, 11]: reduced myocardial apoptosis
B1: IL-18bp: naturally occurring protein that binds to IL-18 and prevents it from activating its receptor (protein, UniProt Q9Z0M9 29-193, looked up)
Interleukin-18-binding protein: TSAPQTTATVLTGSSKDPCSSWSPAVPTKQYPALDVIWPEKEVPLNGTLTLSCTACSRFPYFSILYWLGNGSFIEHLPGRLKEGHTSREHRNTSTWLHRALVLEELSPTLRSTNFSCLFVDPGQVAQYHIILAQLWDGLKTAPSPSQETLSSHSPVSRSAGPGVA
- cardiac IL-18R (β subunit) and Nox4 expression [5, 11]: reduced cardiac Nox4 and IL-18R expression levels; also recorded: reduced cardiac IL-18R (β subunit) and Nox4 expression

B2: IL-18: exogenous IL-18 cytokine administered to mouse hearts, mice or cardiomyocytes (protein, UniProt P70380 36-192, looked up)
Interleukin-18: NFGRLHCTTAVIRNINDQVLFVDKRQPVFEDMTDIDQSASEPQTRLIIYMYKDSEVRGLAVTLSVKDSKMSTLSCKNKIISFEEMDPPENIDDIQSDLIFFQKRVPGHNKMEFESSLYEGHFLACQKEDDAFKLILKKKDENGDKSVMFTLTNLHQS
- action potential duration (APD) [6, 12]: prolonged APD; also recorded: APD prolongation
- conduction velocity (CV), transverse and longitudinal [6, 12]: reduced trends in CV; also recorded: Trends in slowing
- rise time of action potentials [6, 12]: Increased rise time
- electrical effects after 20 minutes of IL-18 administration ([6]; after 20 minutes of perfusion): APD prolongation, atrioventricular block, and a slowed heart rate
- development of multiple PVCs and short-lived VTs ([6]; longer perfusion of IL-18, sickle hearts): 4/4
- changes in APD, CV and rise time [7]: no significant changes
- reduction of Ito ([8]; in 10 minutes, fresh cardiomyocytes isolated from a sickle mouse): 47 % reduction
- peak Ito ([8]; sickle group, IL-18 25 ng/mL, at 50 mV): 3.1±0.8 pA/pF
- Ito (in words) [8, 13]: reduce Ito current; also recorded: further reduced
- fast inactivating Ito [8, 13]: mostly abolished
- cardiac Nox4, p38 activation and nitrotyrosine levels [9]: increases Nox4 levels; also recorded: acutely induces; also recorded: activated

From US11091795B2, “Compositions and methods for diagnosing and treating arrhythmias” (Arizona Board of Regents on Behalf of the University of …, priority 2016, dated 2021)
